What was measured:
[1] = target: T1, TcdA from C. difficile ribotype 087 (Clostridium difficile ribotype 087 …, UniProt P16154 1-2710); test: sandwich ELISA
T1 construct: also called 087 TcdA; TcdA 10463 (087)

[2] = target: T2, TcdA from C. difficile ribotype 027 (Clostridium difficile ribotype 027 …, UniProt P16154 1-2710); test: sandwich ELISA: TcdB coat, quadrahead, TcdA 0-20 ng/ml, rabbit anti-TcdA pAb
T2 construct: also called 027 TcdA; TcdA R20291 (027)

[3] = target: T3, TcdB from C. difficile ribotype 087 (Clostridium difficile ribotype 087, UniProt P18177 2-2366); test: ELISA: TcdB coat, quadrahead, detected with rabbit polyclonal anti-ICVD
T3 construct: also called 087 TcdB

[4] = target: T2, TcdA from C. difficile ribotype 027; test: sandwich ELISA

Measured: binding result

B1: ID-1C (bispecific antibody)
chain: DVQLQESGGGLVQAGGSLRLSCAASGATSDVYAIGWFRQVPGKEREFVATINRSGSDSYYADSVKGRFTISRDNAKNTVYLQMNSLKPEETAVYYCAASRSDCIGYGCRRVSQDYWGQGTQVTVSSGGGGSGGGGSGGGGSGGGGSDVQLQESGGGLVQAGGSLRLSCVISGMDFSHKPAGWFRQAPGKEREFVASITTRASTHYADSVKGRFTISRDNAKNTVYLEMNSLKPEDTAVYYCNSEYYWGQGTQVTVSSGGGGSGGGGSGGGGSGGGGSDVQLQESGGGLVQAGDSLRLSCAASGATLSSYTIGWFRQAPEKEREFVAGSSRDGRTNYYANSVKGRFTISRDNAKNTVYLQMNSLKPEDTAVYYCAAHTTSGVPVRERSYAYWGQGTQVTVSSGGGGSGGGGSGGGGSGGGGSDVQLQESGGGLVQAGGSLRLSCAASGATFSSYYIGWFRQAPGKEREFVAAINGSGGNRISADSVKGRFTISRDNAKNTVYLQLNSLKPEDTAVYYCAASLTYYGRSARYDYWGQGTQVTVSS
notes: also called 1D-1C
binds: [1] | [2] | [3]

B2: ID-3C (bispecific antibody)
chain: DVQLQESGGGLVQAGDSLRLSCAASGATLSSYTIGWFRQAPEKEREFVAGSSRDGRTNYYANSVKGRFTISRDNAKNTVYLQMNSLKPEDTAVYYCAAHTTSGVPVRERSYAYWGQGTQVTVSSGGGGSGGGGSGGGGSGGGGSDVQLQESGGGLVQAGGSLRLSCAASGATSDVYAIGWFRQVPGKEREFVATINRSGSDSYYADSVKGRFTISRDNAKNTVYLQMNSLKPEETAVYYCAASRSDCIGYGCRRVSQDYWGQGTQVTVSSGGGGSGGGGSGGGGSGGGGSDVQLQESGGGLVQAGGSLRLSCVISGMDFSHKPAGWFRQAPGKEREFVASITTRASTHYADSVKGRFTISRDNAKNTVYLEMNSLKPEDTAVYYCNSEYYWGQGTQVTVSSGGGGSGGGGSGGGGSGGGGSDVQLQESGGGLVQAGGSLRLSCAASGATFSSYYIGWFRQAPGKEREFVAAINGSGGNRISADSVKGRFTISRDNAKNTVYLQLNSLKPEDTAVYYCAASLTYYGRSARYDYWGQGTQVTVSS
binds: [1] | [4] | [3]

From patent US20180100009A1 (VHSQUARED, published 2018)
